In US20110262944A1 (UNIVERSITY OF TSUKUBA, published 2011):

Columns and labels:
Assay in all cases: Ni-NTA co-precipitation after co-expression in E. coli
[1] = target: T1, PB2-N (residues 1-86) carrying a hexa-histidine tag at the N-terminal end (influenza A/Puerto Rico/8/34 H1N1, UniProt A4GCJ6 1-86)
T1 sequence: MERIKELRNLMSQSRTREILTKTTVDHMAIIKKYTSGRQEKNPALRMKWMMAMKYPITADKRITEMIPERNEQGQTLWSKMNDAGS

[2] = target: T2, PB2 residues 37-174 with N-terminal hexa-histidine tag and TEV cleavage site (influenza A/Puerto Rico/8/34 H1N1, UniProt A4GCJ6 37-174)
T2 sequence: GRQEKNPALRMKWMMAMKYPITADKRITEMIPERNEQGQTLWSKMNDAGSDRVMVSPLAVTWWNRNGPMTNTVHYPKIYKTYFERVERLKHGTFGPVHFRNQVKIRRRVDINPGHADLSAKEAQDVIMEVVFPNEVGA

[3] = target: PB2 residues 252-490 with N-terminal hexa-histidine tag and TEV cleavage site (influenza A/Puerto Rico/8/34 H1N1, UniProt B4URE6 252-490)

B1: PB1-C (C-terminal residues 678-757 of the RNA polymerase PB1 subunit, influenza A/Puerto Rico/8/34 H1N1) (other)
chain: SQRGVLEDEQMYQRCCNLFEKFFPSSSYRRPVGISSMVEAMVSRARIDARIDFESGRIKKEEFTEIMKICSTIEELRRQK
binding result [1]: binds
binding result [2]: no binding
binding result [3]: no binding
